# Measurements taken from patent publication US20160331840A1.
# Biological target: InlB (recombinant His-tagged InlB321 peptide, aa 36-321 of internalin B) (Listeria monocytogenes)
# Experiment: FACS competition; InlB pre-incubated with soluble MET peptide at 1:1 molar ratio
substance,measurement,value
"MET peptide (soluble peptide derived from the extracellular, ligand-binding domain of MET; YCP2247 SPEED BioSystems) (from UniProt P08581 25-932) (receptor)",percent reduction of InlB binding to H1993 cells,50%
